B1: IgG1-F1138 (antibody)
heavy: QVQLQESGPGLVKPSETLSLTCAVSGHSISHDHAWSWVRQPPGEGLEWIGFISYSGITNYNPSLQGRVTISRDNSKNTLYLQMNSLRAEDTAVYYCARSLARTTAMDYWGEGTLVTVSSASTKGPSVFPLAPSSKSTSGGTAALGCLVKDYFPEPVTVSWNSGALTSGVHTFPAVLQSSGLYSLSSVVTVPSSSLGTQTYICNVNHKPSNTKVDKKVEPKSCDKTHTCPPCPAPELRGGPKVFLFPPKPKDTLYISRTPEVTCVVVDVSHEDPEVKFNWYVDGVEVHNAKTKPREEQYNSTYRVVSVLTVLHQDWLNGKEYKCKVSNKALPAPIEKTISKAKGQPREPQVYTLPPSRDELTKNQVSLTCLVKGFYPSDIAVEWESNGQPENNYKTTPPVLDSDGSFFLYSKLTVDKSRWQQGNVFSCSVMHEALHYHVTRKELSLSP
light: not shown
notes: EU numbering; copies: 2 + 2
B2: IgG1-F1139 (antibody)
heavy: QVQLQESGPGLVKPSETLSLTCAVSGHSISHDHAWSWVRQPPGEGLEWIGFISYSGITNYNPSLQGRVTISRDNSKNTLYLQMNSLRAEDTAVYYCARSLARTTAMDYWGEGTLVTVSSASTKGPSVFPLAPSSKSTSGGTAALGCLVKDYFPEPVTVSWNSGALTSGVHTFPAVLQSSGLYSLSSVVTVPSSSLGTQTYICNVNHKPSNTKVDKKVEPKSCDKTHTCPPCPAPELRGGPKVFLFPPKPKDTLYISRTPEVTCVVVDVSHEDPEVKFNWYVDGVEVHNAKTKPREEQYNSTYRVVSVLTVLHQDWLNGKEYKCKVSNKALPAPIEKTISKAKGQPREPQVYTLPPSRDELTKNQVSLTCLVKGFYPSDIAVEWESNGQPENNYKTTPPVLDSDGSFFLYSKLTVDKSRWQQGNVFNCSVMHEALHYHVTQKSLSLSP
light: not shown
notes: EU numbering; copies: 2 + 2
B3: IgG1-F1140 (antibody)
heavy: QVQLQESGPGLVKPSETLSLTCAVSGHSISHDHAWSWVRQPPGEGLEWIGFISYSGITNYNPSLQGRVTISRDNSKNTLYLQMNSLRAEDTAVYYCARSLARTTAMDYWGEGTLVTVSSASTKGPSVFPLAPSSKSTSGGTAALGCLVKDYFPEPVTVSWNSGALTSGVHTFPAVLQSSGLYSLSSVVTVPSSSLGTQTYICNVNHKPSNTKVDKKVEPKSCDKTHTCPPCPAPELLGGPSVFLFPPKPKDTLYISRTPEVTCVVVDVSHEDPEVKFNWYVDGVEVHNAKTKPREEQYNSTYRVVSVLTVLHQDWLNGKEYKCKVSNKALPAPIEKTISKAKGQPREPQVYTLPPSRDELTKNQVSLTCLVKGFYPSDIAVEWESNGQPENNYKTTPPVLDSDGSFFLYSKLTVDKSRWQQGNEFRCSVMHEALHYHVTRKELSLSP
light: not shown
notes: EU numbering; copies: 2 + 2
B4: IgG1-F1141 (antibody)
heavy: QVQLQESGPGLVKPSETLSLTCAVSGHSISHDHAWSWVRQPPGEGLEWIGFISYSGITNYNPSLQGRVTISRDNSKNTLYLQMNSLRAEDTAVYYCARSLARTTAMDYWGEGTLVTVSSASTKGPSVFPLAPSSKSTSGGTAALGCLVKDYFPEPVTVSWNSGALTSGVHTFPAVLQSSGLYSLSSVVTVPSSSLGTQTYICNVNHKPSNTKVDKKVEPKSCDKTHTCPPCPAPELLGGPSVFLFPPKPKDTLYISRTPEVTCVVVDVSHEDPEVKFNWYVDGVEVHNAKTKPREEQYNSTYRVVSVLTVLHQDWLNGKEYKCKVSNKALPAPIEKTISKAKGQPREPQVYTLPPSRDELTKNQVSLTCLVKGFYPSDIAVEWESNGQPENNYKTTPPVLDSDGSFFLYSKLTVDKSRWQQGNSFRCSVMHEALHYHVTRKELSLSP
light: not shown
notes: EU numbering; copies: 2 + 2
B5: IgG1-F1142 (antibody)
heavy: QVQLQESGPGLVKPSETLSLTCAVSGHSISHDHAWSWVRQPPGEGLEWIGFISYSGITNYNPSLQGRVTISRDNSKNTLYLQMNSLRAEDTAVYYCARSLARTTAMDYWGEGTLVTVSSASTKGPSVFPLAPSSKSTSGGTAALGCLVKDYFPEPVTVSWNSGALTSGVHTFPAVLQSSGLYSLSSVVTVPSSSLGTQTYICNVNHKPSNTKVDKKVEPKSCDKTHTCPPCPAPELRGGPKVFLFPPKPKDTLYISRTPEVTCVVVDVSHEDPEVKFNWYVDGVEVHNAKTKPREEQYNSTYRVVSVLTVLHQDWLNGKEYKCKVSNKALPAPIEKTISKAKGQPREPQVYTLPPSRDELTKNQVSLTCLVKGFYPSDIAVEWESNGQPENNYKTTPPVLDSDGSFFLYSKLTVDKSRWQQGNEFRCSVMHEALHYHVTRKELSLSP
light: not shown
notes: EU numbering; copies: 2 + 2
B6: IgG1-F1143 (antibody)
heavy: QVQLQESGPGLVKPSETLSLTCAVSGHSISHDHAWSWVRQPPGEGLEWIGFISYSGITNYNPSLQGRVTISRDNSKNTLYLQMNSLRAEDTAVYYCARSLARTTAMDYWGEGTLVTVSSASTKGPSVFPLAPSSKSTSGGTAALGCLVKDYFPEPVTVSWNSGALTSGVHTFPAVLQSSGLYSLSSVVTVPSSSLGTQTYICNVNHKPSNTKVDKKVEPKSCDKTHTCPPCPAPELRGGPKVFLFPPKPKDTLYISRTPEVTCVVVDVSHEDPEVKFNWYVDGVEVHNAKTKPREEQYNSTYRVVSVLTVLHQDWLNGKEYKCKVSNKALPAPIEKTISKAKGQPREPQVYTLPPSRDELTKNQVSLTCLVKGFYPSDIAVEWESNGQPENNYKTTPPVLDSDGSFFLYSKLTVDKSRWQQGNSFRCSVMHEALHYHVTRKELSLSP
light: not shown
notes: EU numbering; copies: 2 + 2
B7: IgG1-F1144 (antibody)
heavy: QVQLQESGPGLVKPSETLSLTCAVSGHSISHDHAWSWVRQPPGEGLEWIGFISYSGITNYNPSLQGRVTISRDNSKNTLYLQMNSLRAEDTAVYYCARSLARTTAMDYWGEGTLVTVSSASTKGPSVFPLAPSSKSTSGGTAALGCLVKDYFPEPVTVSWNSGALTSGVHTFPAVLQSSGLYSLSSVVTVPSSSLGTQTYICNVNHKPSNTKVDKKVEPKSCDKTHTCPPCPAPELRGGPKVFLFPPKPKDVLYISRTPEVTCVVVDVSHEDPEVKFNWYVDGVEVHNAKTKPREEQYNSTYRVVSVLQPLHADWLNGKEYKCKVSNKALPAPIEKTISKAKGQPREPQVYTLPPSRDELTKNQVSLTCLVKGFYPSDIAVEWESNGQPENNYKTTPPVLDSDGSFFLYSKLTVDKSRWQQGNVFSCSVMHEALHYHVTRKELSLSP
light: not shown
notes: EU numbering; copies: 2 + 2
B8: IgG1-F1145 (antibody)
heavy: QVQLQESGPGLVKPSETLSLTCAVSGHSISHDHAWSWVRQPPGEGLEWIGFISYSGITNYNPSLQGRVTISRDNSKNTLYLQMNSLRAEDTAVYYCARSLARTTAMDYWGEGTLVTVSSASTKGPSVFPLAPSSKSTSGGTAALGCLVKDYFPEPVTVSWNSGALTSGVHTFPAVLQSSGLYSLSSVVTVPSSSLGTQTYICNVNHKPSNTKVDKKVEPKSCDKTHTCPPCPAPELLGGPSVFLFPPKPKDVLYISRTPEVTCVVVDVSHEDPEVKFNWYVDGVEVHNAKTKPREEQYNSTYRVVSVLQVLHADWLNGKEYKCKVSNKALPAPIEKTISKAKGQPREPQVYTLPPSRDELTKNQVSLTCLVKGFYPSDIAVEWESNGQPENNYKTTPPVLDSDGSFFLYSKLTVDKSRWQQGNVFSCSVMHEALHYHVTRKELSLSP
light: not shown
notes: EU numbering; copies: 2 + 2
B9: IgG1-F1146 (antibody)
heavy: QVQLQESGPGLVKPSETLSLTCAVSGHSISHDHAWSWVRQPPGEGLEWIGFISYSGITNYNPSLQGRVTISRDNSKNTLYLQMNSLRAEDTAVYYCARSLARTTAMDYWGEGTLVTVSSASTKGPSVFPLAPSSKSTSGGTAALGCLVKDYFPEPVTVSWNSGALTSGVHTFPAVLQSSGLYSLSSVVTVPSSSLGTQTYICNVNHKPSNTKVDKKVEPKSCDKTHTCPPCPAPELRGGPKVFLFPPKPKDVLYISRTPEVTCVVVDVSHEDPEVKFNWYVDGVEVHNAKTKPREEQYNSTYRVVSVLQVLHADWLNGKEYKCKVSNKALPAPIEKTISKAKGQPREPQVYTLPPSRDELTKNQVSLTCLVKGFYPSDIAVEWESNGQPENNYKTTPPVLDSDGSFFLYSKLTVDKSRWQQGNVFSCSVMHEALHYHVTRKELSLSP
light: not shown
notes: EU numbering; copies: 2 + 2
B10: IgG1-F1147 (antibody)
heavy: QVQLQESGPGLVKPSETLSLTCAVSGHSISHDHAWSWVRQPPGEGLEWIGFISYSGITNYNPSLQGRVTISRDNSKNTLYLQMNSLRAEDTAVYYCARSLARTTAMDYWGEGTLVTVSSASTKGPSVFPLAPSSKSTSGGTAALGCLVKDYFPEPVTVSWNSGALTSGVHTFPAVLQSSGLYSLSSVVTVPSSSLGTQTYICNVNHKPSNTKVDKKVEPKSCDKTHTCPPCPAPELLGGPSVFLFPPKPKDTLYISRTPEVTCVVVDVSHEDPEVKFNWYVDGVEVHNAKTKPREEQYNSTYRVVSVLQVLHADWLNGKEYKCKVSNKALPAPIEKTISKAKGQPREPQVYTLPPSRDELTKNQVSLTCLVKGFYPSDIAVEWESNGQPENNYKTTPPVLDSDGSFFLYSKLTVDKSRWQQGNVFSCSVMHEALHYHYTRKELSLSP
light: not shown
notes: EU numbering; copies: 2 + 2
B11: IgG1-F1148 (antibody)
heavy: QVQLQESGPGLVKPSETLSLTCAVSGHSISHDHAWSWVRQPPGEGLEWIGFISYSGITNYNPSLQGRVTISRDNSKNTLYLQMNSLRAEDTAVYYCARSLARTTAMDYWGEGTLVTVSSASTKGPSVFPLAPSSKSTSGGTAALGCLVKDYFPEPVTVSWNSGALTSGVHTFPAVLQSSGLYSLSSVVTVPSSSLGTQTYICNVNHKPSNTKVDKKVEPKSCDKTHTCPPCPAPELRGGPKVFLFPPKPKDTLYISRTPEVTCVVVDVSHEDPEVKFNWYVDGVEVHNAKTKPREEQYNSTYRVVSVLQVLHADWLNGKEYKCKVSNKALPAPIEKTISKAKGQPREPQVYTLPPSRDELTKNQVSLTCLVKGFYPSDIAVEWESNGQPENNYKTTPPVLDSDGSFFLYSKLTVDKSRWQQGNVFSCSVMHEALHYHYTRKELSLSP
light: not shown
notes: EU numbering; copies: 2 + 2
B12: IgG1-F1151 (antibody)
heavy: QVQLQESGPGLVKPSETLSLTCAVSGHSISHDHAWSWVRQPPGEGLEWIGFISYSGITNYNPSLQGRVTISRDNSKNTLYLQMNSLRAEDTAVYYCARSLARTTAMDYWGEGTLVTVSSASTKGPSVFPLAPSSKSTSGGTAALGCLVKDYFPEPVTVSWNSGALTSGVHTFPAVLQSSGLYSLSSVVTVPSSSLGTQTYICNVNHKPSNTKVDKKVEPKSCDKTHTCPPCPAPELRGGPKVFLFPPKPKDTLYISRTPEVTCVVVDVSHEDPEVKFNWYVDGVEVHNAKTKPREEQYNSTYRVVSVLTVLHQDWLNGKEYKCKVSNKALPAPIEKTISKAKGQPREPQVYTLPPSRDELTKNQVSLTCLVKGFYPSDIAVEWESNGQPENNYKTTPPVLDSDGSFFLYSKLTVDKSRWQQGNVFNCSVMHEALHYHYTQKSLSLSP
light: not shown
notes: EU numbering; copies: 2 + 2
B13: IgG1-F1152 (antibody)
heavy: QVQLQESGPGLVKPSETLSLTCAVSGHSISHDHAWSWVRQPPGEGLEWIGFISYSGITNYNPSLQGRVTISRDNSKNTLYLQMNSLRAEDTAVYYCARSLARTTAMDYWGEGTLVTVSSASTKGPSVFPLAPSSKSTSGGTAALGCLVKDYFPEPVTVSWNSGALTSGVHTFPAVLQSSGLYSLSSVVTVPSSSLGTQTYICNVNHKPSNTKVDKKVEPKSCDKTHTCPPCPAPELRGGPKVFLFPPKPKDTLYISRTPEVTCVVVDVSHEDPEVKFNWYVDGVEVHNAKTKPREEQYNSTYRVVSVLQVLHADWLNGKEYKCKVSNKALPAPIEKTISKAKGQPREPQVYTLPPSRDELTKNQVSLTCLVKGFYPSDIAVEWESNGQPENNYKTTPPVLDSDGSFFLYSKLTVDKSRWQQGNVFNCSVMHEALHYHYTQKSLSLSP
light: not shown
notes: EU numbering; copies: 2 + 2

Each binder was assayed against T1, soluble human FcRn complexed with β2-microglobulin (human, UniProt P61769 21-119, limits assumed) (assay: Biacore SPR, pH 7.0;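 note: test antibodies captured on a Protein L chip with human FcRn flowed over as analyte, KD obtained as the ratio of dissociation to association rate constants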).
T1 construct: also called hFcRn
T1 sequence (chain, as listed by the source limits assumed, chain 1 of 2): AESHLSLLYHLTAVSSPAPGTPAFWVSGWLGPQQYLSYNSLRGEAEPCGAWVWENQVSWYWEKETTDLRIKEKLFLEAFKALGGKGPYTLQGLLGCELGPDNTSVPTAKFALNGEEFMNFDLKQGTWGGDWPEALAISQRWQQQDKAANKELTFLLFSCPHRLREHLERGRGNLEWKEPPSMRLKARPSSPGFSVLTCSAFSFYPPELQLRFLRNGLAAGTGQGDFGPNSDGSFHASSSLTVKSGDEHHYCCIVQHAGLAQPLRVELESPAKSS
T1 sequence (P61769 21-119 limits assumed, chain 2 of 2): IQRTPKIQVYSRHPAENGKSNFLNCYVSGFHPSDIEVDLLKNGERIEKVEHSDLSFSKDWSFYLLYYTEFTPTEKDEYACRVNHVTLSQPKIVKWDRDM

B1 and B2 are within 1.5-fold of each other in Kd: 165 nM for the first, 152 nM for the second.

B3 and B4 are within 1.5-fold of each other in Kd: 162 nM for the first, 177 nM for the second.

B5 and B6 are within 1.5-fold of each other in Kd: 187 nM for the first, 198 nM for the second.

Going from B7 to B8, the Kd rises from 14.4 nM to 52.3 nM (3.6-fold). The first binds more tightly here.

B9 and B10 are within 1.5-fold of each other in Kd: 62.4 nM for the first, 71.9 nM for the second.

Going from B11 to B12, the Kd rises from 76.3 nM to 251 nM (3.3-fold).

B13 was tested, and the Kd was 73.8 nM.

From patent US20200199241A1 (Chugai, published 2020)
